# Assay results: US20180245067A1 (UNIVERSITY OF LEEDS, published 2018)
# Where a chain is given by its changes, count along the chain named.
# T1: papain (UniProt P00784 134-345)
# T1 sequence (looked up): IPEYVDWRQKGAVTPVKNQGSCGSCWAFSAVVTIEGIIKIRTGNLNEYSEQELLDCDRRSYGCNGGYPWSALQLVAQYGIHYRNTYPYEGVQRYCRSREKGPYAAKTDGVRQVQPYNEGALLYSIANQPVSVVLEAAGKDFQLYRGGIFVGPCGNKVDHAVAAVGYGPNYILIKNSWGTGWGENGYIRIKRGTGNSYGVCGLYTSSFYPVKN
# B1: OSA-IΔD86 (other)
# chain: MSSDGGPVLGGVEPVGNENDLHLVDLARFAVTEHNKKANSLLEFEKLVSVKQQVVAGTLYYFTIEVKEGDAKKLYEAKVWEKPWMFKELQEFKPVDASANARGSHHHHHH
# notes: also called OSA1ΔD86; modified oryzacystatin lacking residue Asp86
# B2: PHYTC57 (designed binder)
# chain: MAALLGGVRAVPGNENSLEIEELARFAVDEHNKKENALLEFVRVVKAKEQVVAGTMYYLTLEAKDGGKKKLYEAKVWVKPWETFKELQEFKPVGDARGSHHHHHH
# notes: also called consensus phytocystatin; consensus cystatin
# B3: Ad-ySUMO 17 (designed binder)
# chain: NSLEIEELARFAVDEHNKKENALLEFVRVVKAKEQWYLLDVMDDTMYYLTLEAKDGGKKKLYEAKVWVKHDRRYKQAENFKELQEFKPVGDA
# notes: also called clone 17
# B4: Ad-ySUMO 8 (designed binder)
# chain: NSLEIEELARFAVDEHNKKENALLEFVRVVKAKEQIDLTQTEIVTMYYLTLEAKDGGKKKLYEAKVWVKEPGIIPIVHNFKELQEFKPVGDA
# notes: also called clone 8
# B5: Ad-ySUMO 6 (designed binder)
# chain: NSLEIEELARFAVDEHNKKENALLEFVRVVKAKEQIDLTEWQDRTMYYLTLEAKDGGKKKLYEAKVWVKPEPIHSHHSNFKELQEFKPVGDA
# notes: also called clone 6
# B6: Ad-ySUMO 9 (designed binder)
# chain: NSLEIEELARFAVDEHNKKENALLEFVRVVKAKEQIDLTDVWIDTMYYLTLEAKDGGKKKLYEAKVWVKGLMTQTNSMNFKELQEFKPVGDA
# notes: also called clone 9
# B7: Ad-ySUMO 12 (designed binder)
# chain: NSLEIEELARFAVDEHNKKENALLEFVRVVKAKEQWYERSENWDTMYYLTLEAKDGGKKKLYEAKVWVKRDYGFTLVPNFKELQEFKPVGDA
# notes: also called clone 12
# B8: Ad-ySUMO 14 (designed binder)
# chain: NSLEIEELARFAVDEHNKKENALLEFVRVVKAKEQWFDDEYDWITMYYLTLEAKDGGKKKLYEAKVWVKDYAATDLYWNFKELQEFKPVGDA
# notes: also called clone 14
# B9: Ad-ySUMO 19 (designed binder)
# chain: NSLEIEELARFAVDEHNKKENALLEFVRVVKAKEQWSEADNDWHTMYYLTLEAKDGGKKKLYEAKVWVKLDLETWQHFNFKELQEFKPVGDA
# notes: also called clone 19
# B10: Ad-ySUMO 18 (designed binder)
# chain: NSLEIEELARFAVDEHNKKENALLEFVRVVKAKEQWIDRGQYWDTMYYLTLEAKDGGKKKLYEAKVWVKIHNGYTIMDNFKELQEFKPVGDA
# notes: also called clone 18
# B11: Ad-ySUMO 7 (designed binder)
# chain: NSLEIEELARFAVDEHNKKENALLEFVRVVKAKEQWVDMDYYWRTMYYLTLEAKDGGKKKLYEAKVWVKMDEIWAEYANFKELQEFKPVGDA
# notes: also called clone 7
# B12: Ad-ySUMO 23 (designed binder)
# chain: NSLEIEELARFAVDEHNKKENALLEFVRVVKAKEQIDLTQPHDSTMYYLTLEAKDGGKKKLYEAKVWVKPHDELNWNMNFKELQEFKPVGDA
# notes: also called clone 23
# B13: Ad-ySUMO 1 (designed binder)
# chain: NSLEIEELARFAVDEHNKKENALLEFVRVVKAKEQWDLTGNVDTTMYYLTLEAKDGGKKKLYEAKVWVKWDDWGERFWNFKELQEFKPVGDA
# notes: also called clone 1
# B14: Ad-ySUMO 3 (designed binder)
# chain: NSLEIEELARFAVDEHNKKENALLEFVRVVKAKEQINLMMVSPMTMYYLTLEAKDGGKKKLYEAKVWVKGIQQNPSHANFKELQEFKPVGDA
# notes: also called clone 3
# B15: Ad-ySUMO 2 (designed binder)
# chain: NSLEIEELARFAVDEHNKKENALLEFVRVVKAKEQIDLTNSFASTMYYLTLEAKDGGKKKLYEAKVWVKDINQYWHSMNFKELQEFKPVGDA
# notes: also called clone 2
# B16: Ad-ySUMO 24 (designed binder)
# chain: NSLEIEELARFAVDEHNKKENALLEFVRVVKAKEQWEDFQTHWETMYYLTLEAKDGGKKKLYEAKVWVKDVGQLLSGINFKELQEFKPVGDA
# notes: also called clone 24
# B17: Ad-ySUMO 4 (designed binder)
# chain: NSLEIEELARFAVDEHNKKENALLEFVRVVKAKEQIDLTHSLNYTMYYLTLEAKDGGKKKLYEAKVWVKGLTNEIQKMNFKELQEFKPVGDA
# notes: also called clone 4
# B18: Ad-ySUMO 5 (designed binder)
# chain: B17 chain
# notes: also called clone 5
# B19: Ad-ySUMO 13 (designed binder)
# chain: NSLEIEELARFAVDEHNKKENALLEFVRVVKAKEQWDLTTPINITMYYLTLEAKDGGKKKLYEAKVWVKYEDYQTPMYNFKELQEFKPVGDA
# notes: also called clone 13
# B20: Ad-ySUMO 20 (designed binder)
# chain: NSLEIEELARFAVDEHNKKENALLEFVRVVKAKEQIDLTGQWLFTMYYLTLEAKDGGKKKLYEAKVWVKPLWQYDAQYNFKELQEFKPVGDA
# notes: also called clone 20
# B21: Ad-ySUMO 22 (designed binder)
# chain: B12 chain with P41S, H42F, S44M, H71I, E73S, L74N, N75F, W76T, N77G, M78T
# notes: also called clone 22
# B22: Ad-ySUMO 15 (designed binder)
# chain: B12 chain with P70Y, H71E, D72E, E73D, L74E, N75Y, N77R
# notes: also called clone 15; Yeast Sumo Adhiron 15
# B23: Ad-ySUMO 10 (designed binder)
# chain: NSLEIEELARFAVDEHNKKENALLEFVRVVKAKEQIIIHENDADTMYYLTLEAKDGGKKKLYEAKVWVKGIMDGLNKYNFKELQEFKPVGDA
# notes: also called clone 10
# B24: CEWC (other, chicken)
# chain: SEDRSRLLGAPVPVDENDEGLQRALQFAMAEYNRASNDKYSSRVVRVISAKRQLVSGIKYILQVEIGRTTCPKSSGDLQSCEFHDEPEMAKYTTCTFVVYSIPWLNQIKLLESKCQRGSHHHHHH
# notes: also called chicken egg white cystatin
# Target: T1, papain
# Assay: cell-based or functional assay
row,Binder,"IC50, papain inhibition assay with pGlu-Phe-Leu-p-nitroanilide [M]"
1,B1,1.8e-07
2,B2,4.6e-08

# Target: T2, yeast Small Ubiquitin-like Modifier protein (SUMO) (yeast, UniProt Q12306 1-98 = SUMO)
# T2 construct: also called ySUMO; yeast SUMO
# Assay: phage ELISA on biotinylated ySUMO
# T2 sequence (Q12306 1-98 limits assumed): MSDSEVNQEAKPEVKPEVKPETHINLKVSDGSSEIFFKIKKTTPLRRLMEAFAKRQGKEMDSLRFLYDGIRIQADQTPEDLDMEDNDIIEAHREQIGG
row,Binder,binding result
1,B3,binds
2,B4,binds
3,B5,binds
4,B6,binds
5,B7,binds
6,B8,binds
7,B9,binds
8,B10,binds
9,B11,binds
10,B12,binds
11,B13,binds
12,B14,binds
13,B15,binds
14,B16,binds
15,B17,binds
16,B18,binds
17,B19,binds

# Target: T3, human SUMO1 (human, UniProt P63165 1-97)
# T3 construct: also called hSUMO1
# Assay: ELISA and Western blot with biotinylated Adhiron
# T3 sequence (P63165 1-97 limits assumed): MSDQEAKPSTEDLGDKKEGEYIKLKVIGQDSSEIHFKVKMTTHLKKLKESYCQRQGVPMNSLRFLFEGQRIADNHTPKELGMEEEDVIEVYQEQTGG
row,Binder,binding result
1,B20,no binding
2,B21,no binding
3,B22,no binding
4,B23,no binding

# Target: T2, yeast Small Ubiquitin-like Modifier …
# Assay: BioLayer Interferometry (BLitz), biotinylated Adhiron on streptavidin biosensor, global fit
row,Binder,Kd [nM]
1,B20,14.2
2,B21,9
3,B22,2.4
4,B23,11.5

# Target: T1, papain
# Assay: SPR (BIACORE 3000), cystatin on NTA chip via His tag, papain as analyte, 1:1 Langmuir fit
Binder,Ka [M⁻¹],Kd [nM],kon [M⁻¹ s⁻¹]
B24,2.6e+09,0.39,1.3e+06
B1,2.1e+08,,
B2,1.6e+11,0.0063,350000
